Results taken from patent US20090246219A1.

Molecular target: recombinant truncated protein E pE22-160, designated pE(A) (H. influenzae (NTHi strain 772))
Test: Western blot of pE(A) probed with IgD(λ)

Substance: human IgD(λ) myeloma protein (human IgD myeloma whole serum IgD(λ), The Binding Site, Birmingham, England) (antibody)
- amount of pE(A) detected on Western blot: 0.01 microg
